Experimental data reported in paper PMC12751603 (Journal of Experimental & Clinical Cancer Research : CR, 2025).
Non-standard residues stand in square brackets, D forms with d. No end group written: not given here. pY = N[C@@H](Cc1ccc(OP(=O)(O)O)cc1)C(=O)O

Experiments:
GST-PTPN9 D335A = target: T1, GST-PTPN9 D335A (UniProt P43378 1-593, D335A); experiment: cell-based or functional assay
T1 sequence (looked up): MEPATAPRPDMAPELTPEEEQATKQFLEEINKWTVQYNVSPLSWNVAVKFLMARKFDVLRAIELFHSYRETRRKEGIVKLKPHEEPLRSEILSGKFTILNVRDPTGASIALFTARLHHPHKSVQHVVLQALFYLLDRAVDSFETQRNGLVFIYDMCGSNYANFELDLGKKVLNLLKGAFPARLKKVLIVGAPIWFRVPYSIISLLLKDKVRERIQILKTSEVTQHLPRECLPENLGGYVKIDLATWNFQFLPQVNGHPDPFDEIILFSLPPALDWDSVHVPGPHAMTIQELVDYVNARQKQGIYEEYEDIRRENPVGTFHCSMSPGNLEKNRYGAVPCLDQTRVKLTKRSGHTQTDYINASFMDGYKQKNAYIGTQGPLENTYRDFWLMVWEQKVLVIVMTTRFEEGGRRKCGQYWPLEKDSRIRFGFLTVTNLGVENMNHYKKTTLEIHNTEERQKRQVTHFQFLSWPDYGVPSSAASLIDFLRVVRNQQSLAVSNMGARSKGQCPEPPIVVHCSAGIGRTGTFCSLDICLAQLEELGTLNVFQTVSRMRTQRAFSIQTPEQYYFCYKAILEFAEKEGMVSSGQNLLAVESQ

GST-PTPN9 Y333A = target: T2, GST-PTPN9 Y333A (UniProt P43378 1-593, Y333A); experiment: cell-based or functional assay
T2 sequence (looked up): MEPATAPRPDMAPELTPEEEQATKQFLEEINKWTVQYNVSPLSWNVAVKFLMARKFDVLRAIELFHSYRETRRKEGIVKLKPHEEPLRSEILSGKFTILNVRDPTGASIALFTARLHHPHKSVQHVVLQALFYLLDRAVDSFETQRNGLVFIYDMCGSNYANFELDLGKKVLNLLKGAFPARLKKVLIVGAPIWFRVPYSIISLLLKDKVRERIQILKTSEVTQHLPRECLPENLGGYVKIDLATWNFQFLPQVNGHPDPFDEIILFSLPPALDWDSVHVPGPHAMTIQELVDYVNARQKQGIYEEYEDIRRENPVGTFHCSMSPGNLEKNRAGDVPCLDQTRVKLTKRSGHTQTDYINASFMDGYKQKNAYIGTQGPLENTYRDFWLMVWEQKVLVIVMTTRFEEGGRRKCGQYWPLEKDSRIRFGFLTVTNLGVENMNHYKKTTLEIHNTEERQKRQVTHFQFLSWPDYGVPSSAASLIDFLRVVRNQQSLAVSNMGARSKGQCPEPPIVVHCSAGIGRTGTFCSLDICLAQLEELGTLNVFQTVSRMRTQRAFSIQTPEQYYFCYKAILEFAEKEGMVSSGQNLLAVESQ

IYETD[pY][pY]RKGGK [p-IGF1R^Y1165/1166 peptide]
Kcat of phosphatase activity against the p-IGF1R^Y1165/1166 peptide (GST-PTPN9 D335A): 1.78 s⁻¹ | Kcat of phosphatase activity against the p-IGF1R^Y1165/1166 peptide (GST-PTPN9 Y333A): 3.42 s⁻¹
